Assay results as given in patent US20020114797, “Composition and methods for modulating the length of telomeres” (Telogene Inc., published 2002).

How the values were obtained:
[1] = molecular target: T1, GST-UP1 (hnRNP A1 proteolytic fragment UP1) (UniProt P49312 P49312:1-196); experiment: pulldown; glutathione Sepharose beads, washes at 165 mM NaCl; highest recovery; plain beads less than 10% of bound; details: tags: N-terminal GST fusion (inferred); label: 32P
Method: (§1) Following 5×1 ml washes in buffer containing 165 mM NaCl, the recovery of the labelled oligos was measured. The (TTAGGG)₃ oligonucleotide was recovered with the highest yield. A control experiment with plain beads yielded less that 10% of bound (TTAGGG)₃ oligonucleotide. A labelled DNA oligonucleotide containing the complementary sequence (CCCTAA)₃ was recovered at background level. […] UP1 associated directly with telomeric repeats carrying the TTAGGG sequence. Gel-shift assays performed with mutated oligonucleotides indicate that UP1 binds specifically to (TTAGGG)₃ oligonucleotide.
(§2) ³²P-labelled DNA oligonucleotides were mixed with Glutathione Sepharose 4B beads containing or lacking the GST-UP1 fusion protein. Following 5×1 ml washes in buffer containing 165 mM NaCl, the recovery of the labelled oligos was measured. The (TTAGGG)₃ oligonucleotide was recovered with the highest yield. A control experiment with plain beads yielded less that 10% of bound (TTAGGG)₃ oligonucleotide. A labelled DNA oligonucleotide containing the complementary sequence (CCCTAA)₃ was recovered at background level. […] Thus, UP1 can associate directly with telomeric repeats carrying the TTAGGG sequence. Furthermore, gel-shift assays performed with mutated oligonucleotides indicate that UP1 binds specifically to (TTAGGG)₃ oligonucleotide. […] It remains to be shown whether UP1 associates with telomeric repeats in vivo.

[2] = molecular target: T1, GST-UP1 (hnRNP A1 proteolytic fragment …); experiment: pulldown; background level recovery; 165 mM NaCl washes; also tested by gel shift (FIG. 3 lane 9); details: tags: N-terminal GST fusion (inferred); label: 32P
Method: as §1, §2

T1 sequence (P49312 1-196, one chain of several): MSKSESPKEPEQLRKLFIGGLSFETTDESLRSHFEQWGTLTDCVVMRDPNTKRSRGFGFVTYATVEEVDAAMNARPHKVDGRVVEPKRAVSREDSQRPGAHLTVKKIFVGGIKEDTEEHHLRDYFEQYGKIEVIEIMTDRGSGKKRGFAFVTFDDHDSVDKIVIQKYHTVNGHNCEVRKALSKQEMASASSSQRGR

| Binder | binding result [1] | binding result [2] |
| --- | --- | --- |
| TTAGGGTTAGGGTTAGGG (ssDNA) [vertebrate telomeric (TTAGGG)3] | binds |  |
| CCCTAACCCTAACCCTAA (ssDNA) [complementary C-strand (CCCTAA)3] |  | no binding |
